# From US20040142455A1
# Legend:
# [1] = biological target: Crotalus durissus terrificus (C.d.t.) venom; assay: ELISA on C.d.t. venom; dilution 1:312,500
# [2] = biological target: Crotalus durissus terrificus (C.d.t.) venom; assay: ELISA on C.d.t. venom; dilution 1:62,500
substance,measurement,setting,value
preimmune IgY (antibody),ELISA absorbance,[1],0.01 absorbance
same,ELISA absorbance,[2],0.001 absorbance
